In US6586222:

Legend:
[1] = tested on: recombinant human proPR-3 secreted from Sf9 insect cells
[2] = molecular target: recombinant human proPR-3 secreted from Sf9 insect cells (human) (UniProt P24158); test: cell-based or functional assay
Sequence of recombinant human proPR-3 secreted from Sf9 insect cells (human) (P24158 26-256 V119I): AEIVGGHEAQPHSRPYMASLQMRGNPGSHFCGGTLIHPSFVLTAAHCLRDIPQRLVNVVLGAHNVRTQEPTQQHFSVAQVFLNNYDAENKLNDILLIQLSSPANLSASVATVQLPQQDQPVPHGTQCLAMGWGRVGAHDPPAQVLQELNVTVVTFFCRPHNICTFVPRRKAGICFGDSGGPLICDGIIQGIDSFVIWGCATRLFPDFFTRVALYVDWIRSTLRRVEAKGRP

Sequence of recombinant human proPR-3 secreted from Sf9 insect cells (chain, as listed by the source): as the sequence (P24158 26-256 V119I) above

N-terminal sequence of PR-3 after preparative DPPI activation [2]	Substance	activation of proPR-3 (PR-3 activity on Boc-Ala-ONp after DPPI treatment) [1]
–	bovine dipeptidyl peptidase I (Boehringer Mannheim)	1.25% (wt/wt) was determined the minimum amount of DPPI required to obtain complete activation of PR-3 in 3 hr. at 37 °C
> 85%	bovine dipeptidyl peptidase I (Boehringer Mannheim) (from UniProt Q3ZCJ8 25-463) (enzyme)	–
